Values quoted from earlier work, collected in article PMC8494837.

Target: Ubiquitin (Homo sapiens) (UniProt P0CG47)

Chain of CXCR4 (P61073 whole entry): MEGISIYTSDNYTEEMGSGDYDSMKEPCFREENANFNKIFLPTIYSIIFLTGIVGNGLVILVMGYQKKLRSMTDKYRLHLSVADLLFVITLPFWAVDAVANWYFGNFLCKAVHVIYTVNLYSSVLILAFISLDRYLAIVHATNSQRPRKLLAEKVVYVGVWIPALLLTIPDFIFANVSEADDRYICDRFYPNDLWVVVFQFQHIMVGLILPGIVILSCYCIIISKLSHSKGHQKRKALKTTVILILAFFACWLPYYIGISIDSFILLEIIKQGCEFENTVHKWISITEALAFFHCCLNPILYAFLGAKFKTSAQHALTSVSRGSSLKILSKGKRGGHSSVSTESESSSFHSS

Kd: 84 nM
Substance: CXCR4 (from UniProt P61073)
